Test results reported in paper PMC3953254.

Biological target: SadB (cytosolic construct without signal peptide, Cys-22 replaced by serine) (S. typhimurium) (UniProt Q8ZL65)
Assay: crystal structure; SadB at 8 mg/ml in 20 mM MOPS/HCl, pH 7, 50 mM NaCl; sitting drop at 20 °C; reservoir 0.2 M lithium sulfate, 0.1 M Tris, pH 8.5, 20% (w/v) PEG 4000; 2.45 Å

SadB (cytosolic construct without signal peptide, Cys-22 replaced by serine) (from UniProt Q8ZL65 22-227) (domain or fragment)
stoichiometry N: 3
